From patent US20210395393A1

Molecular target: TPA mutant tenecteplase (human) (UniProt P00750)
Assay: binding ELISA, plate coated with tenecteplase

Chain of TPA mutant tenecteplase (human) (P00750 36-562, change not shown): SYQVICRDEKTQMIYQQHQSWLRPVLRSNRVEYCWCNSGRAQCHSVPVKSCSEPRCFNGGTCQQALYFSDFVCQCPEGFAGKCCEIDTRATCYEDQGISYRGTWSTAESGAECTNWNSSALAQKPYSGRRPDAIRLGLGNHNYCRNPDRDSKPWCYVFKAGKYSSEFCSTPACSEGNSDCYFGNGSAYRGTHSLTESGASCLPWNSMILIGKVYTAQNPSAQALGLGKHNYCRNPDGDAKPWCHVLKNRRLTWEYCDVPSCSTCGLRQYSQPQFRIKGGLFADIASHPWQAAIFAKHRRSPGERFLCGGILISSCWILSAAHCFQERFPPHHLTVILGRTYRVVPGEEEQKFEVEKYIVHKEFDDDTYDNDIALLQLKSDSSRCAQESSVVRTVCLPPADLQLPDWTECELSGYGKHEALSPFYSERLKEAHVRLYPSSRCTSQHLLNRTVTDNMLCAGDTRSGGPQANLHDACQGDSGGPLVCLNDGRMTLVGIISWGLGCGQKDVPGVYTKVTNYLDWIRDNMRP

Row | EC50 | Binder
1 | 0.633 nM | TPAi-1 RHP/RKA (antibody, V domains shown) VH: QVQLVQSGAEVKKPGASVKVSCKASGNTSYWINWVRQATGQGLEWMGRIDPGGGSTGYAQKFQGRVTMTRDTSISTAYMELSSLRSEDTAVYYCASYYYAMAYWGQGTLVTVSS VL: DVVMTQSPLSLPVTPGEPASISCRSSQSIVHSNGNTYLDWYLQKPGQSPQLLIYKVSNRASGVPDRFSGSGSGTDFTLKISRVEAEDVGVYYCFQGSHVPWTFGGGTKVEIK
2 | 1.31 nM | TPAi-1 RHP/RKA Fab (Fab, V domains shown) VH: QVQLVQSGAEVKKPGASVKVSCKASGNTSYWINWVRQATGQGLEWMGRIDPGGGSTGYAQKFQGRVTMTRDTSISTAYMELSSLRSEDTAVYYCASYYYAMAYWGQGTLVTVSS VL: DVVMTQSPLSLPVTPGEPASISCRSSQSIVHSNGNTYLDWYLQKPGQSPQLLIYKVSNRASGVPDRFSGSGSGTDFTLKISRVEAEDVGVYYCFQGSHVPWTFGGGTKVEIK
